Assay results taken from US12698507B2, “Methods and compositions for conferring and/or enhancing herbicide tolerance using protoporphyrinogen IX oxidase of various cyanobacteria or variant thereof” (FarmHannong Co., Ltd., priority 2019, dated 2026).
Positions count from the first letter of the chain named. Names may count otherwise.

B1: CyPPO19 R89A + A167L + V305L + F360T: variant of CyPPO19 PPO protein (SEQ ID NO: 1) (protein)
chain: MSEVDVAIVGGGLSGLSLAWRLQQSAPQYSVVLLEASDRLGGNITTQTAEGFVWELGPNSFAPTPALLQLIAEVGLQSELIRGDRHLPAYIYWRGQLYPLQPTRPLALATSNLLSPWGKVRAALGALGFVPPYLGSGDESVNSFFRRHLGQEVAERLVAPFVSGVYLGDPQQLSAAAAFRRIAQLEKLGGGLIAGALHLRRQQAPKPKPPTSVQMRPGELGSFKEGLAALPRAIAQQLKAPIHLQTPVQEITPDPKGGYLLRSGEQTWRARSVVLATPAYQTAELVAPFQPAIARVLATIPYPTLACVVLAYPAGLGRSVRPGFGVLIPRSQGIRTLGTIWSSCLFPQRTPAGWQVFTSTIGGATDPDLASLSEEAIVQQVQQDLNRLLDLPAAKARLLGMKVWRRAIPQYMVGYPEQWQQVTHALSQTPGLFLCSNYAEGVALGDRVEHGNRTAAAVAAYLSGGQP
modifications: Synthetic_PPO of Thermosynechococcus elongatus PKUAC-SCTE542 (comprising GenBank No. CP032152.1)
B2: CyPPO19 R89A + A167L + L327T + F360I: variant of CyPPO19 PPO protein (SEQ ID NO: 1) (protein)
chain: B1 chain with L305V, L327T, T360I
modifications: Synthetic_PPO of Thermosynechococcus elongatus PKUAC-SCTE542 (comprising GenBank No. CP032152.1)
B3: CyPPO19 R89A + A167C + I408R + F360M: variant of CyPPO19 PPO protein (SEQ ID NO: 1) (protein)
chain: B1 chain with L167C, L305V, T360M, I408R
modifications: Synthetic_PPO of Thermosynechococcus elongatus PKUAC-SCTE542 (comprising GenBank No. CP032152.1)
B4: CyPPO19 A167I + V305L + L327T + F360V: variant of CyPPO19 PPO protein (SEQ ID NO: 1) (protein)
chain: B1 chain with A89R, L167I, L327T, T360V
modifications: Synthetic_PPO of Thermosynechococcus elongatus PKUAC-SCTE542 (comprising GenBank No. CP032152.1)
B5: CyPPO19 V165S + F360V: variant of CyPPO19 PPO protein (SEQ ID NO: 1) (protein)
chain: B1 chain with A89R, V165S, L167A, L305V, T360V
modifications: Synthetic_PPO of Thermosynechococcus elongatus PKUAC-SCTE542 (comprising GenBank No. CP032152.1)
B6: CyPPO19 V165S + F360L: variant of CyPPO19 PPO protein (SEQ ID NO: 1) (protein)
chain: B1 chain with A89R, V165S, L167A, L305V, T360L
modifications: Synthetic_PPO of Thermosynechococcus elongatus PKUAC-SCTE542 (comprising GenBank No. CP032152.1)
B7: CyPPO19 A167L + V305M + I408R + F360M: variant of CyPPO19 PPO protein (SEQ ID NO: 1) (protein)
chain: B1 chain with A89R, L305M, T360M, I408R
modifications: Synthetic_PPO of Thermosynechococcus elongatus PKUAC-SCTE542 (comprising GenBank No. CP032152.1)
B8: CyPPO19 V165C + A167C + I408W + F360T: variant of CyPPO19 PPO protein (SEQ ID NO: 1) (protein)
chain: B1 chain with A89R, V165C, L167C, L305V, I408W
modifications: Synthetic_PPO of Thermosynechococcus elongatus PKUAC-SCTE542 (comprising GenBank No. CP032152.1)
B9: CyPPO19 V165C + A167I + V305M + F360V: variant of CyPPO19 PPO protein (SEQ ID NO: 1) (protein)
chain: B1 chain with A89R, V165C, L167I, L305M, T360V
modifications: Synthetic_PPO of Thermosynechococcus elongatus PKUAC-SCTE542 (comprising GenBank No. CP032152.1)
B10: CyPPO19 V165S + A167C + L327T + F360M: variant of CyPPO19 PPO protein (SEQ ID NO: 1) (protein)
chain: B1 chain with A89R, V165S, L167C, L305V, L327T, T360M
modifications: Synthetic_PPO of Thermosynechococcus elongatus PKUAC-SCTE542 (comprising GenBank No. CP032152.1)

system: PPO-deficient BT3 E. coli (ΔPPO); experiment: PPO-inhibiting herbicide tolerance test of PPO variants in E. coli (growth on herbicide-containing LB agar); format: cell-based; conditions: CyPPO19 variants in BT3 (ΔPPO) E. coli; LB agar with 0 to 2,000 μM herbicide, 37° C., dark, 16-20 hours
Method in brief: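 PPO-deficient BT3 E. coli expressing each variant from pET303 were diluted to OD600=0.5, then 10-fold serially, and spotted on LB-ampicillin agar with 0 to 2,000 μM herbicide. After 16-20 h at 37° C. in the dark, growth relative to wild type was scored from '−' (equivalent) to '+' per 10-fold resistance, max '+++++'.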

Molecule	tolerance level relative to wild type, Carfentrazone	tolerance level relative to wild type, Flumioxazin	tolerance level relative to wild type, Fomesafen	tolerance level relative to wild type, Oxyfluorfen	tolerance level relative to wild type, Saflufenacil	tolerance level relative to wild type, Sulfentrazone	tolerance level relative to wild type, Tiafenacil
B1	+ (‘+’ per each 10-fold resistance)	++ (‘+’ per each 10-fold resistance)	++ (‘+’ per each 10-fold resistance)	++ (‘+’ per each 10-fold resistance)	+++ (‘+’ per each 10-fold resistance)	++ (‘+’ per each 10-fold resistance)	+++ (‘+’ per each 10-fold resistance)
B2	++ (‘+’ per each 10-fold resistance)	++++ (‘+’ per each 10-fold resistance)	+++ (‘+’ per each 10-fold resistance)	+++++ (until ‘+++++’ as maximal resistance)	++++ (‘+’ per each 10-fold resistance)	++++ (‘+’ per each 10-fold resistance)	++++ (‘+’ per each 10-fold resistance)
B3	+ (‘+’ per each 10-fold resistance)	++++ (‘+’ per each 10-fold resistance)	++ (‘+’ per each 10-fold resistance)	++ (‘+’ per each 10-fold resistance)	+++ (‘+’ per each 10-fold resistance)	++ (‘+’ per each 10-fold resistance)	+++ (‘+’ per each 10-fold resistance)
B4	+ (‘+’ per each 10-fold resistance)	+++++ (until ‘+++++’ as maximal resistance)	+++ (‘+’ per each 10-fold resistance)	+++ (‘+’ per each 10-fold resistance)	++++ (‘+’ per each 10-fold resistance)	++++ (‘+’ per each 10-fold resistance)	+++++ (until ‘+++++’ as maximal resistance)
B5	+ (‘+’ per each 10-fold resistance)	++++ (‘+’ per each 10-fold resistance)	+ (‘+’ per each 10-fold resistance)	++ (‘+’ per each 10-fold resistance)	++++ (‘+’ per each 10-fold resistance)	++++ (‘+’ per each 10-fold resistance)	++++ (‘+’ per each 10-fold resistance)
B6	+ (‘+’ per each 10-fold resistance)	++++ (‘+’ per each 10-fold resistance)	++ (‘+’ per each 10-fold resistance)	++ (‘+’ per each 10-fold resistance)	++++ (‘+’ per each 10-fold resistance)	+++ (‘+’ per each 10-fold resistance)	++++ (‘+’ per each 10-fold resistance)
B7	+ (‘+’ per each 10-fold resistance)	+++++ (until ‘+++++’ as maximal resistance)	+++ (‘+’ per each 10-fold resistance)	+++ (‘+’ per each 10-fold resistance)	+++++ (until ‘+++++’ as maximal resistance)	+++++ (until ‘+++++’ as maximal resistance)	+++++ (until ‘+++++’ as maximal resistance)
B8	+ (‘+’ per each 10-fold resistance)	++++ (‘+’ per each 10-fold resistance)	++ (‘+’ per each 10-fold resistance)	++ (‘+’ per each 10-fold resistance)	++++ (‘+’ per each 10-fold resistance)	+++ (‘+’ per each 10-fold resistance)	++++ (‘+’ per each 10-fold resistance)
B9	+ (‘+’ per each 10-fold resistance)	++ (‘+’ per each 10-fold resistance)	+ (‘+’ per each 10-fold resistance)	+ (‘+’ per each 10-fold resistance)	++ (‘+’ per each 10-fold resistance)	+ (‘+’ per each 10-fold resistance)	++ (‘+’ per each 10-fold resistance)
B10	+ (‘+’ per each 10-fold resistance)	++++ (‘+’ per each 10-fold resistance)	++ (‘+’ per each 10-fold resistance)	++ (‘+’ per each 10-fold resistance)	++++ (‘+’ per each 10-fold resistance)	++++ (‘+’ per each 10-fold resistance)	++++ (‘+’ per each 10-fold resistance)
